This note sets out measurements from patent US6372898 (SCHERING, dated 2002).

Series [1] has as its target T1, cytokine receptor common gamma chain (γc), wild type.
T1 chain: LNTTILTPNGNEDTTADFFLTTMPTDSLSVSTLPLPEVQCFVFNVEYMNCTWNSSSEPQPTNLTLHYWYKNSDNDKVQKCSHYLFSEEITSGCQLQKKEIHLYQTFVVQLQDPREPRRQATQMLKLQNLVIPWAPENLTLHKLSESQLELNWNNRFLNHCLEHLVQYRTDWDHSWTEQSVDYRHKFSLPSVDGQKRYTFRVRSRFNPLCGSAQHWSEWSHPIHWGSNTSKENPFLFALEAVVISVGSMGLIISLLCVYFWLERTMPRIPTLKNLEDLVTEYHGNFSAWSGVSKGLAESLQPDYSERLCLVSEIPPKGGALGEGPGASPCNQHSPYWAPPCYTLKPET

Series [2] addresses T2, cytokine receptor common gamma chain (γc), wild type (human, UniProt P31785 23-369).
T2 construct: also called WT γc; gc
T2 sequence: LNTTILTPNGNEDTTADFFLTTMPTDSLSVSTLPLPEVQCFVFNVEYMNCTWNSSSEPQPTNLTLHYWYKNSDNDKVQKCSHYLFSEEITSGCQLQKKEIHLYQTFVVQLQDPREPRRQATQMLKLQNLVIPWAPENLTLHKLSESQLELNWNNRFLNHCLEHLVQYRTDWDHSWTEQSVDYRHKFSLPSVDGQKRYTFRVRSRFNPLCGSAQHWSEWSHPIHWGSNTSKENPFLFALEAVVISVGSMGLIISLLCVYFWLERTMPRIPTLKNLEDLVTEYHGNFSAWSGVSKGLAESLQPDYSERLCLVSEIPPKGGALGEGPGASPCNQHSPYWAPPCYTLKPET
Kind of series: co-immunoprecipitation from 293T lysates; anti-FLAG M2 IP of FLAG-tagged Jak3, blot for γc. As for the experimental part:
(§1) Lysates were centrifuged at 12,000×g, and NaCl was added to 500 mM final concentration. Lysates were immunoprecipitated with the appropriate antibody. Rabbit polyclonal, mouse monoclonal (M2), and Sepharose-conjugated M2 anti-FLAG antibodies were purchased from Kodak Scientific Imaging Systems (Rochester, N.Y.), Goat anti-γ_c antibody was purchased from R&D (Minneapolis, Minn.). Lysates were boiled, and subjected to 8% SDS-PAGE or 12% SDS-PAGE for experiments with Jak3 fragments, and electrotransferred onto […] membranes (Immobilon-P, Millipore, Bradford, Mass.). Membranes were probed with one of the following antibodies: Mouse monoclonal M2 anti-FLAG antibody, rabbit polyclonal anti-γ_c antibody, or mouse monoclonal anti-Myc tag antibody 9E10 (Santa Cruz Biotechnology, Santa Cruz, Calif.). For the immunoprecipitation with EBV-transformed B cell lines and the IL-2R expressing fibroblasts, cells were lysed as described above, except with a final NaCl concentration of 150 mM. Lysates were immunoprecipitated with monoclonal (M2) anti-FLAG antibody, rabbit polyclonal antibody directed against the C-terminus of Jak3 (α-Jak3; Kawamura, et al. (1994) *Proc Nat'l Acad Sci USA* 91:6374–8) or rabbit polyclonal antibody specific for STAT5b (Santa Cruz Biotechnology, Santa Cruz, Calif.). Immunoprecipitates were then washed, boiled, and resolved using SDS-PAGE. […]

Series [3] has as its target T2, cytokine receptor common gamma chain …. The series can be described thus: co-immunoprecipitation, 293T cells.
Series [4] has the same target. The series can be described thus: co-immunoprecipitation from 293T lysates; γc precipitated, blot for the epitope-tagged Jak3 fragment. As for the experimental part: as §1

B1: Jak3 Y100C (enzyme)
chain: MAPPSEETPLIPQRSCSLLSTEAGALHVLLPARAPGPPQRLSFSFGDHLAEDLCVQAAKASGILPVYHSLFALATEDLSCWFPPSHIFSVEDASTQVLLCRIRFYFPNWFGLEKCHRFGLRKDLASAILDLPVLEHLFAQHRSDLVSGRLPVGLSLKEQGECLSLAVLDLARMAREQAQRPGELLKTVSYKACLPPSLRDLIQGLSFVTRRAIRRTVRRALPRVAACQADRHSLMAKYIMDLERLDPAGAAETFHVGLPGALGGHDGLGLLRVAGDGGIAWTQGEQEVLQPFCDFPEIVDISIKQAPRVGPAGEHRLVTVTRTDNQILEAEFPGLPEALSFVALVDGYFRLTTDSQHFFCKEVAPPRLLEEVAEQCHGPITLDFAINKLKTGGSRPGSYVLRRSPQDFDSFLLTVCVQNPLGPDYKGCLIRRSPTGTFLLVGLSRPHSSLRELLATCWDGGLHVDGVAVTLTSCCIPRPKEKSNLIVVQRGHSPPTSSLVQPQSQYQLSQMTFHKIPADSLEWHENLGHGSFTKIYRGCRHEVVDGEARKTEVLLKVMDAKHKNCMESFLEAASLMSQVSYRHLVLLHGVCMAGDSTMVQEFVHLGAIDMYLRKRGHLVPASWKLQVVKQLAYALNYLEDKGLPHGNVSARKVLLAREGADGSPPFIKLSDPGVSPAVLSLEMLTDRIPWVAPECLREAQTLSLEADKWGFGATVWEVFSGVTMPISALDPAKKLQFYEDRQQLPAPKWTELALLIQQCMAYEPVQRPSFRAVIRDLNSLISSDYELLSDPTPGALAPRDGLWNGAQLYACQDPTIFEERHLKYISQLGKGNFGSVELCRYDPLAHNTGALVAVKQLQHSGPDQQRDFQREIQILKALHSDFIVKYRGVSYGPGRPELRLVMEYLPSGCLRDFLQRHRARLDASRLLLYSSQICKGMEYLGSRRCVHRDLAARNILVESEAHVKIADFGLAKLLPLDKDYYVVREPGQSPIFWYAPESLSDNIFSRQSDVWSFGVVLYELFTYCDKSCSPSAEFLRMMGCERDVPALCRLLELLEEGQRLPAPPACPAEVHELMKLCWAPSPQDRPSFSALGPQLDMLWSGSRGCETHAFTAHPEGKHHSLSFS
notes: also called Y100C mutant; patient mutant; not shown: C-terminal FLAG tag (single copy) joined through a ClaI site
B1: the “IL-2 induced tyrosine phosphorylation of Jak3 in IL-2R+ fibroblasts” value in series [1] is on record as “no IL-2-induced phosphorylation of Jak3 Y100C was observed”. In series [2], the binding result is given as “no binding”.

B2: Jak3 Y100C/Y105F double mutant (enzyme)
chain: MAPPSEETPLIPQRSCSLLSTEAGALHVLLPARAPGPPQRLSFSFGDHLAEDLCVQAAKASGILPVYHSLFALATEDLSCWFPPSHIFSVEDASTQVLLCRIRFFFPNWFGLEKCHRFGLRKDLASAILDLPVLEHLFAQHRSDLVSGRLPVGLSLKEQGECLSLAVLDLARMAREQAQRPGELLKTVSYKACLPPSLRDLIQGLSFVTRRAIRRTVRRALPRVAACQADRHSLMAKYIMDLERLDPAGAAETFHVGLPGALGGHDGLGLLRVAGDGGIAWTQGEQEVLQPFCDFPEIVDISIKQAPRVGPAGEHRLVTVTRTDNQILEAEFPGLPEALSFVALVDGYFRLTTDSQHFFCKEVAPPRLLEEVAEQCHGPITLDFAINKLKTGGSRPGSYVLRRSPQDFDSFLLTVCVQNPLGPDYKGCLIRRSPTGTFLLVGLSRPHSSLRELLATCWDGGLHVDGVAVTLTSCCIPRPKEKSNLIVVQRGHSPPTSSLVQPQSQYQLSQMTFHKIPADSLEWHENLGHGSFTKIYRGCRHEVVDGEARKTEVLLKVMDAKHKNCMESFLEAASLMSQVSYRHLVLLHGVCMAGDSTMVQEFVHLGAIDMYLRKRGHLVPASWKLQVVKQLAYALNYLEDKGLPHGNVSARKVLLAREGADGSPPFIKLSDPGVSPAVLSLEMLTDRIPWVAPECLREAQTLSLEADKWGFGATVWEVFSGVTMPISALDPAKKLQFYEDRQQLPAPKWTELALLIQQCMAYEPVQRPSFRAVIRDLNSLISSDYELLSDPTPGALAPRDGLWNGAQLYACQDPTIFEERHLKYISQLGKGNFGSVELCRYDPLAHNTGALVAVKQLQHSGPDQQRDFQREIQILKALHSDFIVKYRGVSYGPGRPELRLVMEYLPSGCLRDFLQRHRARLDASRLLLYSSQICKGMEYLGSRRCVHRDLAARNILVESEAHVKIADFGLAKLLPLDKDYYVVREPGQSPIFWYAPESLSDNIFSRQSDVWSFGVVLYELFTYCDKSCSPSAEFLRMMGCERDVPALCRLLELLEEGQRLPAPPACPAEVHELMKLCWAPSPQDRPSFSALGPQLDMLWSGSRGCETHAFTAHPEGKHHSLSFS
notes: not shown: C-terminal FLAG tag (single copy) joined through a ClaI site
On to B2, for which, in series [2], the binding result was “no binding”.

B3: Jak3 Y100C/K855A (enzyme)
chain: MAPPSEETPLIPQRSCSLLSTEAGALHVLLPARAPGPPQRLSFSFGDHLAEDLCVQAAKASGILPVYHSLFALATEDLSCWFPPSHIFSVEDASTQVLLCRIRFYFPNWFGLEKCHRFGLRKDLASAILDLPVLEHLFAQHRSDLVSGRLPVGLSLKEQGECLSLAVLDLARMAREQAQRPGELLKTVSYKACLPPSLRDLIQGLSFVTRRAIRRTVRRALPRVAACQADRHSLMAKYIMDLERLDPAGAAETFHVGLPGALGGHDGLGLLRVAGDGGIAWTQGEQEVLQPFCDFPEIVDISIKQAPRVGPAGEHRLVTVTRTDNQILEAEFPGLPEALSFVALVDGYFRLTTDSQHFFCKEVAPPRLLEEVAEQCHGPITLDFAINKLKTGGSRPGSYVLRRSPQDFDSFLLTVCVQNPLGPDYKGCLIRRSPTGTFLLVGLSRPHSSLRELLATCWDGGLHVDGVAVTLTSCCIPRPKEKSNLIVVQRGHSPPTSSLVQPQSQYQLSQMTFHKIPADSLEWHENLGHGSFTKIYRGCRHEVVDGEARKTEVLLKVMDAKHKNCMESFLEAASLMSQVSYRHLVLLHGVCMAGDSTMVQEFVHLGAIDMYLRKRGHLVPASWKLQVVKQLAYALNYLEDKGLPHGNVSARKVLLAREGADGSPPFIKLSDPGVSPAVLSLEMLTDRIPWVAPECLREAQTLSLEADKWGFGATVWEVFSGVTMPISALDPAKKLQFYEDRQQLPAPKWTELALLIQQCMAYEPVQRPSFRAVIRDLNSLISSDYELLSDPTPGALAPRDGLWNGAQLYACQDPTIFEERHLKYISQLGKGNFGSVELCRYDPLAHNTGALVAVAQLQHSGPDQQRDFQREIQILKALHSDFIVKYRGVSYGPGRPELRLVMEYLPSGCLRDFLQRHRARLDASRLLLYSSQICKGMEYLGSRRCVHRDLAARNILVESEAHVKIADFGLAKLLPLDKDYYVVREPGQSPIFWYAPESLSDNIFSRQSDVWSFGVVLYELFTYCDKSCSPSAEFLRMMGCERDVPALCRLLELLEEGQRLPAPPACPAEVHELMKLCWAPSPQDRPSFSALGPQLDMLWSGSRGCETHAFTAHPEGKHHSLSFS
notes: also called J3 Y100C/K855A; not shown: C-terminal FLAG or Myc tag joined through a ClaI site
With B3, the binding result in series [3] was “no binding”.

B4: Jak3 fragment J3 1-109 (other, not shown: small tags and cut ends)
chain: MAPPSEETPLIPQRSCSLLSTEAGALHVLLPARAPGPPQRLSFSFGDHLAEDLCVQAAKASGILPVYHSLFALATEDLSCWFPPSHIFSVEDASTQVLLYRIRFYFPNW
For B4, the binding result in series [4] is “no binding”.
